Test results: PMC5260909

Experiments:
[1] = target: NMDAR of rat GluN1-1b WT with WT GluN2A, on transfected HEK-293 cells (rat) (UniProt Q00959)
[2] = target: Endogenous NMDAR (GluN1 subunit) of mouse cortical neurons and mouse brain (mouse (endogenous in cortical neurons of Swiss mice)) (UniProt P35438)
[3] = target: NMDAR of rat GluN1-1b WT with WT GluN2A, on transfected HEK-293 cells (rat) (UniProt Q00959); remark: listed apart in the source

UniProt Q00959, sequence (Q00959 whole entry, looked up): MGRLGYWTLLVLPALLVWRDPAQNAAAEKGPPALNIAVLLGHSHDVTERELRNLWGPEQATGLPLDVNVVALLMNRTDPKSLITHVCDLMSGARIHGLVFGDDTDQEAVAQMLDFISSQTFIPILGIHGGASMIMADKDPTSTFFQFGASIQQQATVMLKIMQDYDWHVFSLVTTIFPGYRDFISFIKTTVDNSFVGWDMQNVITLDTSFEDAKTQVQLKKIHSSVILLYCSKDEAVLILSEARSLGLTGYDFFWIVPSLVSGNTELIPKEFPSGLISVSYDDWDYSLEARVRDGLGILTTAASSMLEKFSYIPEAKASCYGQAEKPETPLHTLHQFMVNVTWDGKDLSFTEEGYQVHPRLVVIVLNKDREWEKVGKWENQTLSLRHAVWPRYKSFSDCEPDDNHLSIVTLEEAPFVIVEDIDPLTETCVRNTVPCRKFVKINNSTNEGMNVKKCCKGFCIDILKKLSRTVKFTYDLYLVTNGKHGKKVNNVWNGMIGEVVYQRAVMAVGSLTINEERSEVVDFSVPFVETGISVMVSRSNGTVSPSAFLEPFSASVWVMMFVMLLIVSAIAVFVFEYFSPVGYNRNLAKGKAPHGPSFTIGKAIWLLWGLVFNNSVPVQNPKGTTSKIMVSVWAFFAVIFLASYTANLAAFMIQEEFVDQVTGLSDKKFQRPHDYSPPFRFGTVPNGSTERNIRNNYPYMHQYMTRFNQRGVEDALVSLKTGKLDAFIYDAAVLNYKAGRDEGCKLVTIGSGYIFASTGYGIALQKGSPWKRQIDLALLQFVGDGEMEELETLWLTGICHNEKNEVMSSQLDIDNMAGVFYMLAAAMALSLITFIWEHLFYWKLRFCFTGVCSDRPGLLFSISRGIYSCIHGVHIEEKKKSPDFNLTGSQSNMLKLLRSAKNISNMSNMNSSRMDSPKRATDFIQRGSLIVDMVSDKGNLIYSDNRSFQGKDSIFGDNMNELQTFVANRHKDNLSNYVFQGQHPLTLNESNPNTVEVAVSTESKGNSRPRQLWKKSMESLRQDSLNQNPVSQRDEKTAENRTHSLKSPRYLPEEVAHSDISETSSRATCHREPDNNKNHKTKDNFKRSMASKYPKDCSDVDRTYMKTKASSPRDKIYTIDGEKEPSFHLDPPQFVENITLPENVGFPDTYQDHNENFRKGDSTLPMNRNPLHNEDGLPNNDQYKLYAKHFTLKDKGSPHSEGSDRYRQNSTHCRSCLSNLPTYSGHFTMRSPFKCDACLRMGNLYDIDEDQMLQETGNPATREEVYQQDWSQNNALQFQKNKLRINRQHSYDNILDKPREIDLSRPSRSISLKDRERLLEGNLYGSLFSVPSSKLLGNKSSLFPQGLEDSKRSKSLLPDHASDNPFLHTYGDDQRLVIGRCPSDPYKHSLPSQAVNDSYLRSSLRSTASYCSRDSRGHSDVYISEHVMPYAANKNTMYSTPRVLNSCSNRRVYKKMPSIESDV

Substance	NMDA-induced calcium influx (Fura-2 video imaging) in HEK-293 cells transfected with GluN1-1b WT and GluN2A; potentiation after 20 min with tPA 300 nM (% of potentiation) [1]	NMDA-induced calcium influx (Fura-2 video imaging) in primary cultures of mouse cortical neurons; potentiation after 45 min with tPA 300 nM [2] [%]	NMDA-induced calcium influx in primary cultures of mouse cortical neurons; tPA 300 nM together with the antibody of clone 6C9B6 10 μg/ml (% of potentiation) [2]	NMDA-induced calcium influx in HEK-293 cells transfected with GluN1-1b WT, GluN2A and tPA WT; change after 20 min with the antibody Glunomab 10 μg/ml (% of potentiation) [3]
Human tissue-type plasminogen activator (tPA, Actilyse) (enzyme)	27	31	38	
WT rat tissue-type plasminogen activator (tPA WT), expressed in HEK-293 cells (from UniProt P19637 33-559) (enzyme)				-18
